Experimental data reported in PMC11004252, “Cooperative interaction of interferon regulatory factor -1 and bromodomain—containing protein 4 on RNA polymerase activation for intrinsic innate immunity” (Frontiers in Immunology, 2024).

Biological target: T1, Bromodomain containing protein 4 (BRD4) (human (endogenous in hSAECs), UniProt O60885 1-1362)
T1 construct: BRD4, endogenous in hSAECs; detected in situ with rabbit BRD4 Ab (Cell Signaling 13440); also called BRD4 CRC; source: endogenous, hSAECs (fixed cells, mock or RSV infected)
Assay: proximity ligation; Duolink in situ PLA, mouse anti-IRF1 and rabbit anti-BRD4 Abs, fixed hSAECs, RSV infected (MOI 1, 24 h), with solvent (DMSO) or BRD4i ZL0454 (complex unaffected by BRD4i)
Details: partners not purified

B1: interferon regulatory factor 1 (IRF1) (natural protein, human (endogenous in hSAECs), UniProt P10914 1-325, looked up)
chain: MPITRMRMRPWLEMQINSNQIPGLIWINKEEMIFQIPWKHAAKHGWDINKDACLFRSWAIHTGRYKAGEKEPDPKTWKANFRCAMNSLPDIEEVKDQSRNKGSSAVRVYRMLPPLTKNQRKERKSKSSRDAKSKAKRKSCGDSSPDTFSDGLSSSTLPDDHSSYTVPGYMQDLEVEQALTPALSPCAVSSTLPDWHIPVEVVPDSTSDLYNFQVSPMPSTSEATTDEDEEGKLPEDIMKLLEQSEWQPTNVDGKGYLLNEPGVQPTSVYGDFSCKEEPEIDSPGGDIGLSLQRVFTDLKNMDATWLDSLLTPVRLPSIQAIPCAP
notes: IRF1, endogenous in telomerase-immortalized human small airway epithelial cells (hSAECs); detected in situ with mouse IRF1 Ab (R&D MAB4830-SO); source: endogenous, hSAECs (fixed cells, mock or RSV infected)
fold increase of PLA complex, RSV against mock: 25 fold
